Measurements as given in patent US20200040059A1.

Target: PD-1 (human)
Assay: cell-based or functional assay

Sequence of Full length ECD of PD-L2 (ligand) (Q9BQ51 20-220): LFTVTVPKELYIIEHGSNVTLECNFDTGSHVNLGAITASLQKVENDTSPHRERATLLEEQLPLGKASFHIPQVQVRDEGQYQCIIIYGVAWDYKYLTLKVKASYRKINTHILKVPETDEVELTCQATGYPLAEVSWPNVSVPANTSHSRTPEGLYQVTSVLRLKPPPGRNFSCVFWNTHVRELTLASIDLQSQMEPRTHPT

Row | Substance | Fold increase over wildtype PD-L2 IgV-Fc, MLR IFN gamma [fold] | IFN gamma levels pg/mL, MLR [pg/mL]
1 | Wild Type PD-L2 IgV (Fc fusion) | – | 1380
2 | PD-L2 IgV-Fc I13V, H15Q, V89D (Fc fusion) | 0.82 | 1120
3 | PD-L2 IgV-Fc I13V, H15Q, Q72H, R76G, I86T (Fc fusion) | 0.89 | 1220
4 | PD-L2 IgV-Fc H15Q, Q82R, V89D (Fc fusion) | 0.79 | 1080
5 | PD-L2 IgV-Fc I13V, H15Q, T47A, Q82R (Fc fusion) | 1.24 | 1700
6 | PD-L2 IgV-Fc H15Q, T47A, Q82R (Fc fusion) | 0.96 | 1320
7 | PD-L2 IgV-Fc Q82R, V89D (Fc fusion) | 1.17 | 1620
8 | PD-L2 IgV-Fc H15Q, V89D (Fc fusion) | 1.09 | 1500
9 | PD-L2 IgV-Fc S67L, I85F (Fc fusion) | 0.93 | 1280
10 | Full length ECD of PD-L2 (ligand) | – | 1170
11 | PD-L2 IgV-Fc I13V, H15Q, T47A, S67L, Q72H, R76G, Q82R, V89D (Fc fusion) | 1.13 | 1560
12 | PD-L2 IgV-Fc I13V, H15Q, T47A, Q82R, V89D (SEQ ID NO 1545) (Fc fusion) | 1.26 | 1740
13 | PD-L2 IgV-Fc H15Q, S39I, E44D, Q72H, V75G, R76G, Q82R, V89D (Fc fusion) | 0.68 | 941
14 | PD-L2 IgV-Fc I13V, H15Q, S67L, I86T (Fc fusion) | 0.74 | 1010
15 | PD-L2 IgV-Fc H15Q, S39I, S67L, V89D (Fc fusion) | 0.89 | 1230
16 | PD-L2 IgV-Fc H15Q, S39I, I86T (Fc fusion) | 1.03 | 1420
17 | PD-L2 IgV-Fc I13V, H15Q, Q82R (Fc fusion) | 1.04 | 1430
18 | PD-L2 IgV-Fc I13V, H15Q, S39I, E44D, S67L (Fc fusion) | 0.91 | 1260

Row | Substance | Fold increase over wildtype PD-L2 IgV-Fc, MLR IFN gamma [fold] | IFN gamma levels pg/mL, MLR [pg/mL]
19 | PD-L2 IgV-Fc I13V, S67L, Q82R, V89D (Fc fusion) | 1 | 1370
20 | PD-L2 IgV-Fc I13V, H15Q, R76G, I85F (Fc fusion) | 1.11 | 1530
21 | PD-L2 IgV-Fc I13V, H15Q, T47A, Q72H, R76G (Fc fusion) | 1.07 | 1470
22 | PD-L2 IgV-Fc I13V, H15Q, T47A, Q72H, R76G, I86T (Fc fusion) | 0.79 | 1090
23 | PD-L2 IgV-Fc H15Q, E44D, R76G, I85F (Fc fusion) | 1.01 | 1390
24 | PD-L2 IgV-Fc I12V, I13V, H15Q, T47A, Q82R, V89D (Fc fusion) | 1.11 | 1530
25 | PD-L2 IgV-Fc H15Q, S67L, I86T (Fc fusion) | 0.75 | 1030
26 | PD-L2 IgV-Fc H15Q, T47A, S67L, R76G, Q82R, V89D (Fc fusion) | 0.8 | 1100
27 | PD-L2 IgV-Fc H15Q, V31M, S67L, Q82R, V89D (Fc fusion) | 0.88 | 1210
28 | PD-L2 IgV-Fc H15Q, N18D, T47A, Q72H, V73A, R76G, I86T, V89D (Fc fusion) | 0.77 | 1070
29 | PD-L2 IgV-Fc N24D (Fc fusion) | 1.44 | 1980
30 | PD-L2 IgV-Fc N32D, S67L, V89D (Fc fusion) | 0.87 | 1190
31 | PD-L2 IgV-Fc H15Q, K65R (Fc fusion) | 1.1 | 1510
32 | PD-L2 IgV-Fc S39I, V89D (Fc fusion) | 0.95 | 1310
33 | PD-L2 IgV-Fc I13V, S67L, V89D (Fc fusion) | 0.63 | 868
34 | PD-L2 IgV-Fc H15Q, T47A, K65R, S67L, Q82R, V89D (Fc fusion) | 0.97 | 1340
35 | PD-L2 IgV-Fc I13V, H15Q, R76G, D77N, Q82R, V89D (Fc fusion) | 0.86 | 1190
36 | PD-L2 IgV-Fc I13V, H15Q, I36V, T47A, S67L, V89D (Fc fusion) | 0.99 | 1360

Now from value to substance:

Row | Fold increase over wildtype PD-L2 IgV-Fc, MLR IFN gamma [fold] | IFN gamma levels pg/mL, MLR [pg/mL] | Substance
37 | 1.04 | 1440 | PD-L2 IgV-Fc H15Q, R76G, I85F (SEQ ID NO 1505) (Fc fusion)
38 | 0.96 | 1320 | PD-L2 IgV-Fc H15Q, S67L, R76G, I85F (Fc fusion)
39 | 0.85 | 1170 | PD-L2 IgV-Fc V89D (Fc fusion)
40 | 0.79 | 1090 | PD-L2 IgV-Fc H15Q, N24S, T47A, Q72H, R76G, V89D (Fc fusion)
41 | 1.04 | 1430 | PD-L2 IgV-Fc H15Q, S67L, R76G (Fc fusion)
42 | 1.01 | 1380 | PD-L2 IgV-Fc I13V, H15Q, E44D, V89D (Fc fusion)
43 | 0.92 | 1270 | PD-L2 IgV-Fc H15Q, Q72H, V89D (Fc fusion)
44 | 1.16 | 1600 | PD-L2 IgV-Fc H15Q, T47A, Q72H, R76G, I86T (Fc fusion)
45 | 1.06 | 1460 | PD-L2 IgV-Fc H15Q, T47A, Q72H, R76G (Fc fusion)
46 | 0.61 | 836 | PD-L2 IgV-Fc I13V, H15Q, T47A, E58G, S67L, Q82R, V89D (Fc fusion)
47 | 1.42 | 1950 | PD-L2 IgV-Fc I13V, Q72H, R76G, I86T (Fc fusion)
48 | 1.25 | 1730 | PD-L2 IgV-Fc H15Q, R76G, I85F (SEQ ID NO 1500) (Fc fusion)
49 | 1.26 | 1730 | PD-L2 IgV-Fc H15Q, T47A, H69L, Q82R, V89D (Fc fusion)
50 | 1.09 | 1500 | PD-L2 IgV-Fc H15Q, L33H, S67L, R76G, Q82R, V89D (Fc fusion)
51 | 1.19 | 1640 | PD-L2 IgV-Fc H15Q, T47A (Fc fusion)
52 | 1.05 | 1450 | PD-L2 IgV-Fc I13V, H15Q, T47A, Q82R, V89D (SEQ ID NO 1544) (Fc fusion)

Row | Fold increase over wildtype PD-L2 IgV-Fc, MLR IFN gamma [fold] | IFN gamma levels pg/mL, MLR [pg/mL] | Substance
53 | 0.73 | 1010 | PD-L2 IgV-Fc I13V, E44D, Q82R, V89D (Fc fusion)
54 | 0.93 | 1280 | PD-L2 IgV-Fc E44D, S67L, Q72H, Q82R, V89D (Fc fusion)
55 | 0.68 | 936 | PD-L2 IgV-Fc I13V, S39I, E44D, Q82R, V89D (Fc fusion)
56 | 1.16 | 1600 | PD-L2 IgV-Fc I13V, H15Q, Q82R, V89D (Fc fusion)
57 | 0.68 | 934 | PD-L2 IgV-Fc H15Q, Q72H, Q74R, R76G, I86T (Fc fusion)
58 | 0.78 | 1080 | PD-L2 IgV-Fc I13V, H15Q, T47A, H69L, R76G, V89D (Fc fusion)
59 | 0.91 | 1250 | PD-L2 IgV-Fc I13V, H15Q, T47A, R76G, V89D (Fc fusion)
60 | 0.77 | 1060 | PD-L2 IgV-Fc H15Q, S67L, Q72H, R76G, V89D (Fc fusion)
61 | 1.34 | 1850 | PD-L2 IgV-Fc H15Q, C23S, I86T (Fc fusion)
62 | 0.92 | 1270 | PD-L2 IgV-Fc I13V, H15Q, E44V, T47A, Q82R, V89D (Fc fusion)
63 | 1.27 | 1750 | PD-L2 IgV-Fc I13V, H15Q, T37A, E44D, S48C, S67L, Q82R, V89D (Fc fusion)
64 | 0.94 | 1290 | PD-L2 IgV-Fc H15Q, L33P, T47A, S67L, P71S, V89D (Fc fusion)
65 | 1.09 | 1500 | PD-L2 IgV-Fc E44D (Fc fusion)
66 | 0.74 | 1020 | PD-L2 IgV-Fc S67L, I86T (Fc fusion)
67 | 0.89 | 1230 | PD-L2 IgV-Fc S67L, V89D (Fc fusion)
68 | 0.93 | 1290 | PD-L2 IgV-Fc H15Q, N32D, S67L, V89D (Fc fusion)
